# Data published in patent publication US20230135471A1, “UBIQUITIN VARIANTS WITH IMPROVED AFFINITY FOR 53BP1” (Integrated DNA Technologies, Inc., priority 2021, published 2023).
# Biological target: 53BP1 fragment (a.a. 1221-1718) fused to an adenylate cyclase fragment (two-hybrid) (UniProt Q12888)
# Assay: not given
Substance,% GFP+ [%],"percent GFP-positive E. coli cells, two-hybrid reporter, gate P5 [%]"
i53-DM (designed binder),0.1,0.1
i53-adenylate cyclase fragment fusion protein (two-hybrid) (designed binder),–,9

# Biological target: 53BP1 fragment (a.a. 1221-1718) fused to an adenylate cyclase fragment (two-hybrid) (UniProt Q12888)
# Assay: cell-based or functional assay
Substance,Experiment 1 Average Enrichment [log2],Experiment 1 Rep 1 Enrichment [log2],Experiment 1 Rep 2 Enrichment [log2],Experiment 2 Average Enrichment [log2],Experiment 2 Rep 1 Enrichment [log2],Experiment 2 Rep 2 Enrichment [log2],"GFP positive population, high selection pressure [%]","GFP positive population, low selection pressure [%]",Percent GFP Positive Rep 1 [%],Percent GFP Positive Rep 2 [%]
i53 + S57H two-hybrid fusion (designed binder),0.72,0.54,0.9,0.17,-0.04,0.39,–,–,–,–
i53 + S57K two-hybrid fusion (designed binder),-0.4,-0.22,-0.58,0.15,-0.07,0.36,–,–,–,–
i53 + S57M two-hybrid fusion (designed binder),0.01,-0.11,0.12,-0.04,-0.17,0.09,–,–,–,–
i53 + S57N two-hybrid fusion (designed binder),1.34,1.72,0.96,0.69,0.82,0.56,–,–,–,–
i53 + S57Q two-hybrid fusion (designed binder),0.07,0.07,0.07,0.14,0.27,0.01,–,–,–,–
i53 + S57R two-hybrid fusion (designed binder),0.02,0.05,-0.01,-0.18,-0.32,-0.03,–,–,–,–
i53 + S65A two-hybrid fusion (designed binder),1.15,1.29,1.01,0.95,1.17,0.73,–,–,–,–
i53 + S65D two-hybrid fusion (designed binder),0.36,0.02,0.7,0.85,0.61,1.1,–,–,–,–
i53 + S65E two-hybrid fusion (designed binder),1.54,1.29,1.79,0.8,0.74,0.85,–,–,–,–
i53 + S65H two-hybrid fusion (designed binder),1.1,0.69,1.5,1.16,1.34,0.98,–,–,–,–
i53 + S65K two-hybrid fusion (designed binder),1.65,1.61,1.69,0.63,0.74,0.53,–,–,–,–
i53 + S65N two-hybrid fusion (designed binder),0.38,0.04,0.71,0.34,0.71,-0.04,–,–,–,–
i53 + S65Q two-hybrid fusion (designed binder),0,-0.02,0.02,0.12,0.01,0.24,–,–,–,–
i53 + S65R two-hybrid fusion (designed binder),1.14,1.15,1.13,1.1,1.48,0.72,–,–,–,–
i53 + T7C two-hybrid fusion (designed binder),1.2,1.16,1.23,0.79,0.9,0.69,–,–,–,–
i53 + T7I two-hybrid fusion (designed binder),1.66,1.7,1.63,1.03,1.04,1.02,–,–,–,–
i53 + T7L two-hybrid fusion (designed binder),0.61,0.62,0.61,-0.19,-0.07,-0.31,–,–,–,–
i53 + T7V two-hybrid fusion (designed binder),0.33,0.24,0.42,0.02,-0.04,0.09,–,–,–,–
i53 + T9E two-hybrid fusion (designed binder),-0.04,0.37,-0.44,0.33,0.02,0.63,–,–,–,–
i53 + T9I two-hybrid fusion (designed binder),0.46,0.3,0.61,0.25,-0.01,0.52,–,–,–,–
i53 + T9S two-hybrid fusion (designed binder),0.4,0.34,0.47,0.18,0.19,0.17,–,–,–,–
i53 + T9V two-hybrid fusion (designed binder),0.06,0.32,-0.21,-0.15,-0.36,0.06,–,–,–,–
i53 + T12Y two-hybrid fusion (designed binder),0.25,0.14,0.36,0.35,0.52,0.17,–,–,–,–
i53 + T14D two-hybrid fusion (designed binder),2.88,2.9,2.86,1.53,1.65,1.4,–,–,–,–
i53 + T14H two-hybrid fusion (designed binder),2.56,2.63,2.5,1.65,1.47,1.84,–,–,–,–
i53 + T14N two-hybrid fusion (designed binder),2.76,2.84,2.69,1.44,1.5,1.37,–,–,–,–
i53 + T55R two-hybrid fusion (designed binder),-0.06,0.11,-0.22,0.12,0.19,0.05,–,–,–,–
i53 + V17C two-hybrid fusion (designed binder),-1.08,-2.27,0.12,0.19,0.6,-0.23,–,–,–,–
i53 + V26L two-hybrid fusion (designed binder),0.55,0.4,0.69,0.55,0.52,0.58,–,–,–,–
i53-adenylate cyclase fragment fusion protein (two-hybrid) (designed binder),–,–,–,–,–,–,3,17,9,7.6

# Same assay, conditions: not given
row,Substance,Percent GFP Positive Rep 3 [%]
1,i53-adenylate cyclase fragment fusion protein (two-hybrid) (designed binder),11.8
